The source of these data is the Immune Epitope Database (IEDB).

What is called Kd is the free concentration of one partner at which half of the binding sites on the other are occupied at equilibrium, for simple one-to-one binding. Lower therefore signals higher affinity.

Test [1] has as its target HLA-A*02:01. Put plainly: IEDB peptide-MHC binding, purified MHC/competitive/fluorescence; filed as Kd, often an IC50 or EC50 that approximates it; ≥ and ≤ were set here for values at or beyond the usual limits of such assays.
Test [2] addresses HLA-B*15:01. Described as above. As to conditions: source organism: Shigella flexneri 5 str. 8401.
Test [3] deals with HLA-B*58:01. Described as above.
Test [4] deals with HLA-A*02:03. The test is described as above.
The target in test [5] is HLA-A*02:12. The description is as above. As to conditions: source organism: Vibrio parahaemolyticus AQ3810.
The target of test [6] is HLA-A*02:19. The test is described as above.
The target in test [7] is HLA-A*03:01. The test is described as above.
A further test has as its target HLA-A*26:01. The description is as above.
The target in test [8] is HLA-B*18:01. The description is as above.
Another test concerns the target HLA-B*27:03. Described as above.
The target of the next test is HLA-B*39:01. The description is as above.
The target of test [9] is HLA-B*46:01. The test is described as above.
In test [10] the target is HLA-B*57:01. Described as above. To be noted: source organism: Vibrio parahaemolyticus AQ3810.
Test [11] addresses HLA-A*02:03. Put plainly: IEDB peptide-MHC binding, purified MHC/direct/fluorescence; filed as Kd, often an IC50 or EC50 that approximates it; ≥ and ≤ were set here for values at or beyond the usual limits of such assays. To be noted: source organism: Zaire ebolavirus.
The target in test [12] is HLA-A*02:11. The description is as above. As to conditions: source organism: Zaire ebolavirus.
Test [13] has as its target HLA-A*02:12. The test is described as above. To be noted: source organism: Zaire ebolavirus.
The target of a further test is HLA-A*02:16. The description is as above. To be noted: source organism: Zaire ebolavirus.
For test [14], the target named is HLA-A*02:19. The test is described as above. As to conditions: source organism: Zaire ebolavirus.
Another test deals with HLA-A*68:02. The test is described as above. As to conditions: source organism: Zaire ebolavirus.
Test [15] deals with HLA-B*15:01. Described as above.
Test [16] concerns the target HLA-A*69:01. Put plainly: IEDB peptide-MHC binding, purified MHC/competitive/fluorescence; filed as Kd, often an IC50 or EC50 that approximates it; ≥ and ≤ were set here for values at or beyond the usual limits of such assays.
The target in test [17] is HLA-A*02:11. Described as above. To be noted: source organism: Human immunodeficiency virus 1.
Test [18] concerns the target HLA-A*01:01. Put plainly: IEDB peptide-MHC binding, purified MHC/direct/fluorescence; filed as Kd, often an IC50 or EC50 that approximates it; ≥ and ≤ were set here for values at or beyond the usual limits of such assays.
Test [19] deals with HLA-A*02:01. The description is as above.
Test [20] concerns the target HLA-A*03:01. The test is described as above.
Another test concerns the target HLA-A*11:01. The test is described as above.
Another test has as its target HLA-A*29:02. The description is as above.
A further test concerns the target HLA-A*31:01. Described as above.
For test [21], the target named is HLA-A*69:01. The test is described as above.
The target in the next test is HLA-B*08:02. The test is described as above.
Test [22] has as its target HLA-B*18:01. The description is as above.
For the next test, the target named is HLA-B*27:05. The description is as above.
The next test concerns the target HLA-B*40:01. The description is as above.
The target in a further test is HLA-B*44:02. The description is as above.
Test [23] concerns the target HLA-B*46:01. The test is described as above.
Test [24] addresses HLA-B*57:01. The description is as above.
For test [25], the target named is HLA-B*58:01. The description is as above.
Test [26] concerns the target HLA-A*01:01. Put plainly: IEDB peptide-MHC binding, purified MHC/competitive/fluorescence; filed as Kd, often an IC50 or EC50 that approximates it; ≥ and ≤ were set here for values at or beyond the usual limits of such assays.
In the next test the target is HLA-B*07:02. Put plainly: IEDB peptide-MHC binding, purified MHC/direct/fluorescence; filed as Kd, often an IC50 or EC50 that approximates it; ≥ and ≤ were set here for values at or beyond the usual limits of such assays. To be noted: source organism: West Nile virus.
Another test deals with HLA-B*08:01. Described as above. To be noted: source organism: West Nile virus.
For the next test, the target named is HLA-B*48:01. Described as above. As to conditions: source organism: West Nile virus.
Where [27] appears, read: source organism: Shigella flexneri 5 str. 8401.
Where [28] appears, read: source organism: Vibrio parahaemolyticus AQ3810.
Where [29] appears, read: source organism: Zaire ebolavirus.
Setting [30] is: source organism: Human immunodeficiency virus 1.
[31] abbreviates: source organism: Yellow fever virus.
Where [32] appears, read: source organism: Salmonella enterica subsp. enterica serovar Typhi.
The mark [33] stands for this setting: source organism: West Nile virus.
Setting [34] is: source organism: Yersinia pestis Nepal516.
The mark [35] stands for this setting: source organism: Yersinia pestis Antiqua.

Regarding HLTPAQLSM, the dissociation constant Kd was 0.301 µM in the test with HLA-A*02:01 [1] (setting [27]), 1.78 µM with HLA-B*15:01 [2] and at least 5 µM in the test with HLA-B*58:01 [3] (setting [27]).
With SSRGYSAIW, the Kd with HLA-A*02:03 [4] (setting [28]), in the test with HLA-A*02:12 [5], with HLA-A*02:19 [6] (setting [28]), in the test with HLA-A*03:01 [7] (setting [28]), with HLA-A*26:01 (setting [28]) and in the test with HLA-B*18:01 [8] (setting [28]) was at least 20 µM throughout. In addition, the dissociation constant Kd in the test with HLA-B*27:03 (setting [28]) was at least 20 µM; with HLA-B*39:01 (setting [28]), at least 20 µM; with HLA-B*46:01 [9] (setting [28]), at least 20 µM; with HLA-B*57:01 [10], 0.042 µM.
Turning to KTNDFAPAW, the Kd with HLA-A*02:03 [11], with HLA-A*02:11 [12], with HLA-A*02:12 [13], with HLA-A*02:16, in the test with HLA-A*02:19 [14] and in the test with HLA-A*68:02 was at least 20 µM throughout. The dissociation constant (Kd) is at least 5 µM in the test with HLA-B*15:01 [15] (source organism: Ebola virus - Gabon (1994-1997)); at least 20 µM in the test with HLA-A*02:01 [1] (setting [29]); at least 20 µM with HLA-A*26:01 (setting [29]); at least 20 µM with HLA-A*69:01 [16] (setting [29]); at least 20 µM in the test with HLA-B*18:01 [8] (setting [29]); at least 20 µM with HLA-B*27:03 (setting [29]). The values for the Kd with HLA-B*39:01 (setting [29]), with HLA-B*46:01 [9] (setting [29]) and in the test with HLA-B*58:01 [3] (setting [29]) were at least 20 µM, at least 20 µM and 0.0013 µM, respectively.
For the sequence GLADQLIHI, the equilibrium dissociation constant (Kd) was 0.0295 µM with HLA-A*02:01 [1] (setting [30]); 0.0012 µM in the test with HLA-A*02:03 [4] (setting [30]); 0.0002 µM with HLA-A*02:11 [17]; 0.0095 µM with HLA-A*02:19 [6] (setting [30]); at least 20 µM with HLA-A*69:01 [16] (setting [30]).
On to GSRAYRNAL, for which the dissociation constant Kd with HLA-A*01:01 [18] (setting [31]), in the test with HLA-A*02:01 [19] (setting [31]), with HLA-A*03:01 [20] (setting [31]), in the test with HLA-A*11:01 (setting [31]), with HLA-A*29:02 (setting [31]) and with HLA-A*31:01 (setting [31]) was at least 20 µM throughout. For the same sequence, the Kd with HLA-A*69:01 [21] (setting [31]), with HLA-B*08:02 (setting [31]), in the test with HLA-B*15:01 [15] (setting [31]), with HLA-B*18:01 [22] (setting [31]), in the test with HLA-B*27:05 (setting [31]) and with HLA-B*40:01 (setting [31]) was at least 20 µM in each case. The Kd with HLA-B*44:02 (setting [31]), in the test with HLA-B*46:01 [23] (setting [31]), with HLA-B*57:01 [24] (setting [31]) and with HLA-B*58:01 [25] (setting [31]) was at least 20 µM each time.
With ITSKEVFTY, the Kd was 0.0338 µM with HLA-A*01:01 [26] (setting [32]), 2.28 µM with HLA-A*03:01 [7] (setting [32]) and 0.0256 µM with HLA-B*58:01 [3] (setting [32]).
Turning to KCRVKMEKL, the Kd in the test with HLA-A*01:01 [18] (setting [33]), with HLA-A*02:01 [19] (setting [33]), with HLA-A*03:01 [20] (setting [33]), in the test with HLA-A*11:01 (setting [33]), with HLA-A*29:02 (setting [33]) and with HLA-A*31:01 (setting [33]) was at least 20 µM each time. Besides, the Kd with HLA-A*69:01 [21] (setting [33]), with HLA-B*07:02, with HLA-B*08:01, with HLA-B*08:02 (source organism: West Nile virus strain PTRoxo), with HLA-B*15:01 [15] (setting [33]) and with HLA-B*18:01 [22] (setting [33]) was at least 20 µM throughout. Moreover, the Kd with HLA-B*27:05 (setting [33]), with HLA-B*40:01 (setting [33]), with HLA-B*44:02 (setting [33]), with HLA-B*46:01 [23] (setting [33]), with HLA-B*48:01 and in the test with HLA-B*57:01 [24] (setting [33]) was at least 20 µM in each case. The same sequence gave a Kd in the test with HLA-B*58:01 [25] (setting [33]) of at least 20 µM.
Consider STIVWSSRY, for which the dissociation constant Kd in the test with HLA-A*01:01 [26] (setting [34]) turned out to be 1.4 µM; with HLA-A*03:01 [7] (setting [34]), 3.5 µM; with HLA-B*58:01 [3] (setting [34]) it was 0.17 µM.
SAYERGLRY: the results for the Kd in the test with HLA-A*03:01 [7] (setting [35]) and with HLA-B*58:01 [3] (setting [35]) were 0.0535 µM and at least 20 µM, respectively.
